Measurements: publication PMC5225439, “Nucleoplasmin-like domain of FKBP39 from Drosophila melanogaster forms a tetramer with partly disordered tentacle-like C-terminal segments” (Scientific Reports, 2017)

Tests used:
[1] = target: the molecule itself; assay: SEC-MALS; 100 μl of 1 mg/ml FKBP39 on Superdex 200 Increase 10/300 in buffer C (50 mM Na2HPO4, 150 mM NaCl, pH 7.0), 0.5 ml/min
[2] = target: the molecule itself; assay: AUC; sedimentation velocity, 20 °C, buffer C (50 mM Na2HPO4, 150 mM NaCl, pH 7.0), 0.2 and 0.5 mg/ml protein, 40,000 rpm, absorbance at 280 nm, continuous c(s) distribution in SEDFIT

B1: 39-kDa FK506-binding protein (FKBP39) from Drosophila melanogaster, full-length, with C-terminal 8x His-tag (natural protein, UniProt P54397 1-357, looked up)
chain: MSMFWGLNMKPERKYSQTIIKSFHISGVALDKGQEAKLYLAAEKQEYIVATVTKAIPQVALDLNFSKGDRIMFYTAGDASVSLLGYLHDIDSEDDEDDDQMTIENLLNSKAIKNSKKSEDDEDENESGEEDEEDTDDDSQIIEEYESFLENGEEEDDDDVDEDNEESGEEDEQDSDDSEAEEEQPKAKVAKLSPGASAKKSGKEQNGVAKKEEAKQQQKKKEKPEAKKEQPKAKEPAKQQPASKDPRTITGGVKIVDQVVGKGEEAKQGKRVSVYYIGRLQSNNKTFDSLLKGKPFKFALGGGEVIKGWDVGVAGMKVGGKRVITCPPHMAYGARGAPPKIGPNSTLVFEVELKAVH
notes: N-terminal NPL 1-86, central charged region 87-256, C-terminal FKBD 257-357; Cloned BamHI/HindIII into the modified vector pQE80L-XH; The forward primer puts TCG (Ser) before the FKBP39 ATG, so a few vector-derived residues precede the natural start; also called full-length FKBP39; recombinant FKBP39; source: E. coli BL21(DE3)pLysS, purified (Co2+-TALON resin, Superdex 200 SEC)
With B1 the “stoichiometry N” value [1] was 2 and the “stoichiometry N” value [2] was 4.
